Test: soluble on expression in E. coli; label from the status in PepcDB or PDB records

Sequence	soluble on expression in E. coli
MGSDKIHHHHHHMNTYAQESKLRLKTKIGADGRCVIEDNFFTPPFKLMAPFYPKDDLAEIMLLAVSPGMMRGDAQDVQLNIGPNCKLRITSQSFEKIHNTEDGFASRDMHIVVGENAFLDFAPFPLIPFENAHFKGNTTISLRSSSQLLYSEIIVAGRVARNELFKFNRLHTKISILQDEKPIYYDNTILDPKTTDLNNMCMFDGYTHYLNLVLVNCPIELSGVRECIEESEGVDGAVSETASSHLCVKALAKGSEPLLHLREKIARLVTQTTTQKV	not soluble
MSLLMKGTYCLIINCRGTERRIGSLGTVRFPPGFYVYVGSGFSSLEARIKRHLSSEKRRRWHIDHFLDGAEVECVLYTTDKRRLECAVSEKLHGEKSVRGFGCSDCSCKSHLHHFKNKNDATESVKRAFRELGAEVHEWGIEGHHHHHH	soluble
MSLDYGINFWSDNDFIIEDGQVKINYKTKPAIIDIVKKVREEGYRGPLLLRFPHLIKKQVDKIFTHFETSIKQYHYKGQFKAVFPLKVNQFPNFVLPLVELSQNRCYGLEAGSKAELIIAMAYTNKGSPITVNGFKDKEMISLGFIAANMGHEITLTIEGLNELETIIEVAEEMGKPCPNIGLRIRLHSSGIGIWAKSGGINSKFGLTSTELLEGIRLLEKHKLIEKFTMIHFHIGSQISDISPLKKAMREAGNIYAELRKMGAKNLKSVNIGGGLAVEYTQHEGSPNRNYTLDEFAGDVVFSLKEIAKNKKEPEPDIYIESGRYIAASHALLVAPVLELFSQEYDEKALHLKDKNPQLIEELNELYNTVNEKYAIEYLHDSLDHMESLLTLFDLGYIDLQDRSNTEILVHLIIKKVIKILKHKNHSDIIRIQEQVQERYLLNCSFFQSLPDYWGLEQSFPVMPLDRLNKRPTRSASLWDITCDSDGEIGFDLNKPLFLHDVDVTTEEYFLGFFLVGAYQEVLGMRHNLFTHPTELSVEFEEDGTHSVTNLLEAQTILDVLDDLDYDTKEIERRLKQRIEDSELIDDETRKEVLGQLYVMLSENGYLRTITNGEGHHHHHH	soluble
GEIYTETLQQTYAWTAGTNIPIKIPRNNFIRKIRVQLIGSISNSGTAAVTLPSAPFPYNLVQTFNLSYEGSKTLYSVSGTGLGILMYYTTKGQNPAYPAPGTSVPASGSVNLNVMWEFDLARFPATMVQNIILSILTGQAPSGVSINASFYITITYERVTAQEILSEGGLGADGEMPLATVLPKVIEIPTFNVPASSAPIHVAYLQPGQIYKRQLVYVINSTSGINNTDPTEYELKIVRGVPTDKIKVSWAALQAENQAEYQVAPYSGASAIIDFRKYFNGDLDLTHAPSDSIEYDLALQNQDNVYSLYVSYVLPYYDQLAALPAQVAAIVQQYVARQKRRIKRHHHHHH	soluble
MKVDLFDFHLPEELIAQTPLPDRAASRLMVLDKRTGAIRHETFRNIISYLNPGDCLVLNDTRVMPARLYGEKEETGGTVEVLLLKQLDGDRWETLVKPGKRVKPGTKLTFGEGKLEAVCLDTLEHGGRVLEFSYDGLFYEVLAELGEMPLPPYIKEKLDDPERYQTVYAREIGSAAAPTAGLHFTEELLDAIREKGVHIVFITLHVGLGTFRPVQVDDVEKHDMHAEFYQMSEETAETLNRVREQGGRIIAVGTTSTRTLETIAGKHNGRFVAESGWTDIFIYPGYEFKGIDGLVTNFHLPKSTLIMLVSALAGRENILHAYQVAVKERYRFFSFGDAMLII	soluble
VDSVFVVGHKNLDMDALGASVGMQAFANNIIEHAAYAVYDEDSMSHDVARAVNRLKEDGHTQLLTVKESIEQVSDNSLLVMVDHSKLQLTLSRELYNKFTEVIVIDHHRRDDDFPENAILTFIESGASSASELVTELLQFQNGKYHLNKIQASIVMAGIMLDTKSFSTRVTSRTFDVASYLRTLGSDNVEIQNISALDF	not soluble
MLLSRICRFRMLTRFTRLRPILQLRYLAQNSHIEEEYFEELEPTGIISSHETSQEPPKRTGFRSQNLSEDADFVENVVGALTDQRAKDVFVVKSEETEMTPYTHKIICSAFNSRQASAISENLRSLLKIDGVSNGSMSHARRSTKRSNGWYVSEVERVQVHVMSEECREKYDLEAIWAGDDRILDEIDEEKQKILLPPRR	not soluble
MPICTRLTAQIVKVAVNQPVAIRSSMWAKNNQNIHFMNLHVKKLEKLLLF	not soluble
MNTISGTHFNYHQVCRRKLWLFSAGITMEHTSDLVYEGKLIHETTYQQRPERYQELELDGIKIDFYDAKNRVVHEVKKSNKISPAHRLQLLYYLYVLERNGVLGATGILEYPTLRKKEEVILSDIDRERIREIEQEILQIISHEDCPPVIDSGICKNCSYYEFCFSGEEQ	not soluble
ISSEQDAINNRFLPTTDRFSERGSYGNFNYAAYQPEAAIGGEKNPLIVWLHGIGEVGTDINIPLLASNVARLTEDPIQSHFTSTGSGGQKGAYVLVPQSSIPWSQNQTASLMALIKAYVASHPDIDSRRIYLAGVSNGGGMTLDMGVAYPNYFAALVPIAASYSNQLTDNQITAAALKALKGQPMWLIHTRTDKTISADSSVLPFYKELLQAGAQNKWLSYYETNVGKHHSGVTYNGHWSWIYFLNDQV	not soluble
MNIEQQLYDVVKQLIEQRYPNDWGGAAAIRVEDGTIYTSVAPDVINASTELCMETGAILEAHKFQKKVTHSICLARENEHSELKVLSPCGVCQERLFYWGPEVQCAITNAKQDIIFKPLKELQPYHWTEAYHDEMVKEWSTR	soluble
MTSIALQLLLLLQPYTLTIRRSKMSTKLKQNLEGSFFVVSFSACSPGSKCEISCNITTFRFILYNIAPLFIARKQRQRIGQFAVVRRVRDRKTGEKYAAKFIKKRRYATSRRGVTRQNIEREVRVLQKIRGNSNVVELHAVYETASDVIIVLELVSGGELFDHVCAKECLDEVEAAAFIKQILLAVRHLHSLHIVHLDIKPENVMLKQRGDSQIKIIDFGLSREIEPGAVVKDMVGTPEFVAPEVVNYEALSPATDMWAVGVVTYILLSGGSPFLGDNRDETFSNITRVRYHFSDRYFKNTSKHAKDFIYRLFVRDVDQRATVEECLQHPWIRGPEGNAIDIRKASCITISHIQSFKTRQRWKRCVELVMVLLKASKSSRRIGDGRFDEEDMVASCTLICAEEGNLRALHKLSALHKLLPNATRKSLKSSFSEPNGATAMHCAAKYGHAEVFNYFHMKGGNICARDDNGDTPLHVACRFAQHTVAGYVANEKIDVDSINKTGETALHCAVESADTRVVRLLLQLRPRLDLPNAREETPLHVAAARGHVDCVQALLDANSPIDAVEQDGKTALIIALENGNVDIASILITNGCDINHADHHGDTALHIASKHGLLQAVQTLCHCAVTVDSVNANKKTALHLAAHYGHVDIIRVLLLARADVTLRGDDGLTAELVAVAAERLEAHSLLKMVKSQEIREEYISQLYPLDTSLRRIKLKLLGHSQSGKTRLVQTLHSSRGISSFLESVTRRISDHYSPSSSMKDDGIHSTNGSFVSESNNNSSFDLAAAAGSKYAPPHSQYTRGIDVQTVNINGCGEFSVWEFGGYEPMHTCYDHFVGNADCIHLILYRTSDPTEVQYKQILYWMNFLKGRVTPFEPIGHCGFSSRRSKVIIVGTHATSSLFPQMNQEGEYVSSDIEAMLNTVRLRFETHFDMDHRLILLDATNPSCIGMKTLKMELAKCRTNILAKLLKPLAILDTVVNHLNLVRKKHANFPVITWPDFIQLVRNEINPLTGDAHCRQIVQQLQLIGELVYLRNDLCDADYVVLNAEWFGTHILGQLLSAEFLSKASPNGSYHTSSLAKIFPEIPEQSDLMTILEVLQLCAPDARTGAHEFPVFIQTEAPDSIWRPYSLKEKERDTVYGGVRILPMRGMERSLHSTFPRIQVALRRSINDYQPAKDTQLHQWSECSKLVSQDREAVIRMVGDAVEIRARGPSESATSMFYFMEDLINLVEHAAAEVGPGISLERHFISPKHLKEHREHPALFPPESMMEMQQRESLSVKGTQDEEELFTDVVCFGSRDVARHLTLGIDVGVADLQMASRCELACLLDPPHAMGRDWSILAVKLQLTDQVPDVDSTGQSLSRTDQLLNEWAIHHPEQASVGNLCRILVELGRCDARDALYRTVPLYVFAPLEDQFLLETNDSGVVSSCHSSSEHNPINI	not soluble
MGSDKIHHHHHHMSRNSPLEISRTLVAALSTQMFRYYEDRIPQDASVLVVSNHRSFMDALILMAALSSPIRFACHHYMGQVPVMREIVTGQLGCFPLEETQNRQQSFFSQSQLLLQSKQMVGVFPEGTAPMVKSTQPNQVGEFQRGFAHLALRADVQDLAILPIAIASLEEVNTNGFPLRLLSVFDPSEPLFNQAGWHPLVIYRRVAVLIGRPYWITPQHQKKYHGKQARTVVAELTEHCHGEISHLLRQGCY	not soluble
